In patent US20190276531A1 (SYMPHOGEN A S, published 2019):

T1: cynomolgus TIM-3 ECD fused C-terminally to human IgG1 Fc (made in-house, ExpiCHO) (cynomolgus monkey (Macaca …))
T1 construct: whole entry named
T1 chain: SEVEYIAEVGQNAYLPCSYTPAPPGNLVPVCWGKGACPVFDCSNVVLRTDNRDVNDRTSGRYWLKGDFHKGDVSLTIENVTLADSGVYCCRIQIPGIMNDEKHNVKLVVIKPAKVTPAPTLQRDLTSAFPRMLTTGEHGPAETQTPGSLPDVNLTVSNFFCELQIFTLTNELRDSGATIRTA


Tests used:
[1] = target: T1, cynomolgus TIM-3 ECD fused C-terminally …; assay: SPR (IBIS MX96); TIM-3 ECD-Fc captured on anti-human IgG Fc sensor, Fab injected 1-100 nM; 1:1 Langmuir fit
[2] = target: T2, human TIM-3 Fc fusion antigen (Sino Biologicals) (human, UniProt Q8TDQ0 22-202); assay: ELISA; TIM-3 Fc fusion coated at 1 µg/ml, antibody titrated 2-fold from 1000 nM, HRP secondary
T2 construct: Bought; also called human TIM-3 ECD; not shown: Fc part of the bought fusion protein, not described

[3] = target: T3, R-PE-labeled human TIM-3-Fc chimera protein (R&D Systems) (human, UniProt Q8TDQ0 22-200, conjugated to R-phycoerythrin (R-PE), sites not stated); assay: flow cytometry competition: R-PE-labelled TIM-3-Fc pre-mixed with titrated antibody, then binding to phosphatidylserine-positive apoptotic Jurkat cells (MFI); blocked ligand: phosphatidylserine; unit taken from the axis log(Concentration) µg/ml
T3 construct: Bought; also called TIM-3-PE; soluble TIM-3-Fc; Fc part of the bought chimera not given, not described

[4] = target: T4, monomeric human TIM-3 ECD antigen (Acro Biosystems) (human, UniProt Q8TDQ0 22-202); assay: SPR (IBIS MX96); antibody captured on anti-human IgG Fc sensor, monomeric human TIM-3 ECD injected 2-100 nM; 1:1 Langmuir fit
T4 construct: Bought; also called soluble monovalent TIM-3 antigen (Acro Biosystems, China)

Binder | EC50 [2] | further results
Fab 20131 (Fab, V domains shown, not shown: cleavage site not s) VH: QVQLQQSGGGLVQPGGSLRLSCAASGFTLSSYAMSWVRQAPGKGLEWVSGISGSGGSTYNADSVKGRFTISRDNSKNTLFLQMNSLRAEDTAVYYCAKIFGSYYFDYWGQGTLVTVSS VL: not shown |  | Kd [1]: 22 nM
antibody 19324 (antibody, V domains shown) VH: QMQLQQSGGGLVQPGGSLRLSCAASGFTVSSYAMSWVRQALGKGLEWVSGISGSGGSTYYADSVKGRFTISRDNSKNTLYLQMNSLRAEDTAVYYCAKIVGATHFDYWGQGTLVTVSS VL: not shown | 0.73 nM | 
antibody 20185 (antibody, V domains shown) VH: QVQLVESGGGLVRPGGSLRLSCAVSGFTFSSYAMSWVRQAPGKGLEWVSGISGSGGSTYNADSVKGRFTISRDNSKNTLYLQMNSLRAEDTAVYYCAKIFGSYYFDYWGQGTLVTVSS VL: not shown | 0.17 nM | 
antibody 20300 (antibody, V domains shown) VH: QVQLQQSGGGLVHPGGSLRLSCAASGFTVDTYAMTWVRQAPGKGLEWVSGISGSGGSTYYADSVKGRFTISRDNSKNTLYLQMNSLRDEDTAVYYCAKIVGVTHFDYWGQGTLVTVSS VL: not shown | 1.13 nM | 
antibody 20362 (antibody, V domains shown) VH: QVTLKESGPGLVKPSQTLSLTCTVSGGSISSGGHYWSWIRQHPGKGLEWIGYISYSGSTYYNPSLKSRLTISVDTSKNQFSLKLSSVTAADTAVYYCATAYYDILTGYPFDYWGQGTLVTVSS VL: EIVMTQSPATLSLSPGERATLSCRASQSVSSYLAWYQQKPGQAPRLLIYDASDRATGIPARFSGSGSGTDFTLTISSLEPEDFAVYYCQQRSNWPITFGQGTRLEIK | 0.26 nM | 
antibody 20621 (antibody, V domains shown) VH: QVQLQQSGPGLVKPSQTLSLTCTVSGGSISSGGYYWSWIRQHPGKGLEWIGYISYSGSIYYNPSLKSRVTISVDTSKNQFSLKLSSVTATDTAVYYCATAYYDLLTGYPFDYWGQGTLVTVSS VL: EIVMTQSPATLSLSPGERATLSCRASQSVSSYLAWYQQKPGQAPRLLIYDASNRATGIPARFSGSGSGTDFTLTISSLEPEDFAVYYCQQRSNWPITFGQGTRLEIK | 0.22 nM | 

Further binders by falling EC50 [2], results first:

EC50 [2] | Binder | further results
0.38 nM | antibody 19568 (antibody, V domains shown) VH: QMQLQESGPGLVKPSQTLSLTCTVSGGSISSVGYYWNWIRQHPGKGLEFIGYIYYSGSIYYNPSLKSRVTISVDTSKNQFSLKLSSVTAADTALYYCASVGIVGASYFEYWGQGTLVTVSS VL: EIVMTQSPATLSLSPGERATLSCRASQSVSSYLAWYQQKPGQAPRLLIYDASNRATGIPARFSGSGSGTDFTLTISSLEPEDFAVYYCQQRSNWPITFGQGTRLEIK | 
0.2 nM | antibody 19416 (antibody, V domains shown) VH: QVQLVESGPGLVKPSQTLSLTCTVSGGSINSGGYYWSWIRQHPGKGLEWIGYIYYSGSIYYNPSLRSRLTISVDTSKNQFSLKLSSVTAADTAVYYCATPYYYGSGSYGDYWGQGTLVTVSS VL: DIQMTQSPATLSLSPGERATLSCRASQSVNNYLAWYQQKPGQAPRLLIYDASNRATGIPARFSGSGSGTDFTLTISSLEPEDFAVYYCQQRSNWPITFGQGTRLEIK | 
0.125 nM | antibody 15086.17145 (antibody, human IgG2, kappa) heavy: QVQLQESGPGLVKPSQTLSLTCTVSGGSISSGGYYWSWTRQHPGMGLEWIGYISYSGSIYYTPSLKSRLTISVDTSKNQFSLKLSSVTAADTAVYYCASLDSWGSNRDYWGQGTLVTVSSASTKGPSVFPLAPCSRSTSESTAALGCLVKDYFPEPVTVSWNSGALTSGVHTFPAVLQSSGLYSLSSVVTVPSSNFGTQTYTCNVDHKPSNTKVDKTVERKCCVECPPCPAPPVAGPSVFLFPPKPKDTLMISRTPEVTCVVVDVSHEDPEVQFNWYVDGVEVHNAKTKPREEQFNSTFRVVSVLTVVHQDWLNGKEYKCKVSNKGLPAPIEKTISKTKGQPREPQVYTLPPSREEMTKNQVSLTCLVKGFYPSDIAVEWESNGQPENNYKTTPPMLDSDGSFFLYSKLTVDKSRWQQGNVFSCSVMHEALHNHYTQKSLSLSPGK light: not shown | IC50 [3]: 0.651 µg/mL; Kd [4]: 19 nM
